According to patent publication US6500417 (DSM N V, dated 2002):
Residue numbers refer to the chain shown, from its start.

B1: hIL-3 deletion mutant 935 (deletion 60-70) (ligand)
chain: APMTQTTPLKTSWVNCSNMIDEIITHLKQPPLPLLDFNNLNGEDQDILMENNLRRPNLEASAIESILKNLLPCLPLATAAPTRHPIHIKDGDWNEFRRKLTFYLKTLENAQAQQTTLSLAIF
notes: not shown: heterologous N-terminal leader of the E. coli fusion (pGB/IL-336: 12 aa; pGB/IL-339: 15 aa)
B2: hIL-3 deletion mutant 934 (deletion 47-54) (ligand)
chain: APMTQTTPLKTSWVNCSNMIDEIITHLKQPPLPLLDFNNLNGEDQDRPNLEAFNRAVKSLQNASAIESILKNLLPCLPLATAAPTRHPIHIKDGDWNEFRRKLTFYLKTLENAQAQQTTLSLAIF
notes: as for B1
B3: hIL-3 deletion mutant 937 (deletion 89-95) (ligand)
chain: APMTQTTPLKTSWVNCSNMIDEIITHLKQPPLPLLDFNNLNGEDQDILMENNLRRPNLEAFNRAVKSLQNASAIESILKNLLPCLPLAPIHIKDGDWNEFRRKLTFYLKTLENAQAQQTTLSLAIF
notes: as for B1
B4: hIL-3 deletion mutant 820 (deletion 85-90) (ligand)
chain: APMTQTTPLKTSWVNCSNMIDEIITHLKQPPLPLLDFNNLNGEDQDILMENNLRRPNLEAFNRAVKSLQNASAIESILKNLLPCAPTRHPIHIKDGDWNEFRRKLTFYLKTLENAQAQQTTLSLAIF
notes: as for B1
B5: hIL-3 substitution mutant 1480 (Asp36→Arg36) (ligand)
chain: APMTQTTPLKTSWVNCSNMIDEIITHLKQPPLPLLRFNNLNGEDQDILMENNLRRPNLEAFNRAVKSLQNASAIESILKNLLPCLPLATAAPTRHPIHIKDGDWNEFRRKLTFYLKTLENAQAQQTTLSLAIF
notes: also called 36D→R; not shown: heterologous N-terminal leader of the E. coli fusion (pGB/IL-336: 12 aa; pGB/IL-339: 15 aa)
B6: hIL-3 substitution mutant 1487A (Glu75→Gly75) (ligand)
chain: B5 chain with R36D, E75G
notes: also called 75E → G; not shown: heterologous N-terminal leader of the E. coli fusion (pGB/IL-336: 12 aa; pGB/IL-339: 15 aa)
B7: hIL-3 substitution mutant 1482 (Asp46→Arg46) (ligand)
chain: B5 chain with R36D, D46R
notes: also called 46D→R; not shown: heterologous N-terminal leader of the E. coli fusion (pGB/IL-336: 12 aa; pGB/IL-339: 15 aa)
B8: hIL-3 substitution mutant 1485 (Glu59→Lys59) (ligand)
chain: B5 chain with R36D, E59K
notes: also called 59E → K; not shown: heterologous N-terminal leader of the E. coli fusion (pGB/IL-336: 12 aa; pGB/IL-339: 15 aa)
B9: hIL-3 deletion mutant 821 (deletion 94-102) (ligand)
chain: APMTQTTPLKTSWVNCSNMIDEIITHLKQPPLPLLDFNNLNGEDQDILMENNLRRPNLEAFNRAVKSLQNASAIESILKNLLPCLPLATAAPTDWNEFRRKLTFYLKTLENAQAQQTTLSLAIF
notes: as for B1
B10: hIL-3 deletion mutant 938 (deletion 103-111) (ligand)
chain: B9 chain with D94R, W95H, N96P, E97I, F98H, R99I, R100K, K101D, L102G
notes: as for B1
B11: hIL-3 deletion mutant 936 (deletion 76-83) (ligand)
chain: APMTQTTPLKTSWVNCSNMIDEIITHLKQPPLPLLDFNNLNGEDQDILMENNLRRPNLEAFNRAVKSLQNASAIECLPLATAAPTRHPIHIKDGDWNEFRRKLTFYLKTLENAQAQQTTLSLAIF
notes: as for B1
B12: hIL-3 deletion mutant 813 (deletion 66-80) (ligand)
chain: APMTQTTPLKTSWVNCSNMIDEIITHLKQPPLPLLDFNNLNGEDQDILMENNLRRPNLEAFNRAVLLPCLPLATAAPTRHPIHIKDGDWNEFRRKLTFYLKTLENAQAQQTTLSLAIF
notes: also called 4813; not shown: heterologous N-terminal leader of the E. coli fusion (pGB/IL-336: 12 aa; pGB/IL-339: 15 aa)

What follows are binders tested against T1, IL-3 receptor (human, UniProt P26951 19-378; P32927 17-897) (assay: cell-based or functional assay).
T1 sequence (P26951 19-378, chain 1 of 2): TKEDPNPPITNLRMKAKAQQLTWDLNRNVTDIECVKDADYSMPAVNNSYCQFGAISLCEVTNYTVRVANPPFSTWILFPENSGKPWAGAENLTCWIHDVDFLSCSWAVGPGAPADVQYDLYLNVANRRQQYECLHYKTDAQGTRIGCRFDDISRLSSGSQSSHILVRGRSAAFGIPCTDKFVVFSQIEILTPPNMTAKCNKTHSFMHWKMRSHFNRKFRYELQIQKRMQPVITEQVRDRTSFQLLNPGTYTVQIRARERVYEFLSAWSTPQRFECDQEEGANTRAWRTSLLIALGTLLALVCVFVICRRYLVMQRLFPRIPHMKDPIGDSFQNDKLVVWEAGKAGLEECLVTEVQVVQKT
T1 sequence (P32927 17-897, chain 2 of 2): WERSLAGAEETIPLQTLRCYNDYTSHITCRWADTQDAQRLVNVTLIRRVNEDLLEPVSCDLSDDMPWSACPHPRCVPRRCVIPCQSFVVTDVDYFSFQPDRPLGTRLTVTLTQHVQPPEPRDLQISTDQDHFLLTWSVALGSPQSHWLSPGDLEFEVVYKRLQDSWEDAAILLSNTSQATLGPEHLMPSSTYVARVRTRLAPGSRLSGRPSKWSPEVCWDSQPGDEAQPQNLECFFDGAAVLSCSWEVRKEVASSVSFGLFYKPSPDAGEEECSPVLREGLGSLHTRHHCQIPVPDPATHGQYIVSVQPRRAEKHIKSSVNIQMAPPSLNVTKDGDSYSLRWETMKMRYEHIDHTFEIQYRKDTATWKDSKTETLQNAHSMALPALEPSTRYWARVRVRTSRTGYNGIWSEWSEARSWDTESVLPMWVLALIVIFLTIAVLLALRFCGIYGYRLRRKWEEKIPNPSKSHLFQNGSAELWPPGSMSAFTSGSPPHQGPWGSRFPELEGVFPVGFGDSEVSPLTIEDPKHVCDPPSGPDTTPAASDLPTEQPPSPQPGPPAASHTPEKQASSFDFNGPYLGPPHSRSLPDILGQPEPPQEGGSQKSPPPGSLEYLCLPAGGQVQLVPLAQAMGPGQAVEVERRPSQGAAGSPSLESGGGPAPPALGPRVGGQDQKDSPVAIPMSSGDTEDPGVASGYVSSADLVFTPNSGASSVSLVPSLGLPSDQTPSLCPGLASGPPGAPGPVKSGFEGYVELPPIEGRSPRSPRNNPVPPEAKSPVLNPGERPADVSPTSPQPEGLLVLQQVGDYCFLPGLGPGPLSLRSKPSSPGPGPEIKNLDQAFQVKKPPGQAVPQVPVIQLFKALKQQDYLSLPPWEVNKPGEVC

REL. SPEC. BIOLOGICAL ACTIVITY (DNA synthesis of AML193 cells) | Binder
1.2e-05 relative to reference IL-3 | B1
7.3e-05 relative to reference IL-3 | B2
1e-05 relative to reference IL-3 | B3
1.1e-05 relative to reference IL-3 | B4
0.0031 relative to reference IL-3 | B5
0.015 relative to reference IL-3 | B6
0.0075 relative to reference IL-3 | B7
0.011 relative to reference IL-3 | B8
1.8e-05 relative to reference IL-3 | B9
6.6e-05 relative to reference IL-3 | B10
6.4e-06 relative to reference IL-3 | B11
2.4e-05 relative to reference IL-3 | B12

These binders were tested against T1, IL-3 receptor (assay: competition with radiolabeled hIL-3 for binding to cells, relative to reference IL-3; done once).
Protocol: (§1) An ILK3 receptor binding assay was performed with purified recombinant hIL-3 (see EPA 0390252) was radiolabeled with the Bolton-Hunter reagent (as described by Budel et al., Blood 74 (1989) 565–571). The specific activity was estimated at 80,000 cpm/ng of IL-3. As target, either donor leukocytes, patient AML cells, or MV4-11 (ATCC: CRL-9591) cells were used. Cells were washed in Hanks Balanced Salt solution and suspended in Alpha-MEM plus 1% BSA. Usually, 3–10×10⁶ cells were incubated with 200–300 pM of radiolabeled IL-3 and various concentrations of unlabeled mutant protein in a total volume of 200 µl for 1 hr at 37° C. Cell-bound labeled IL-3 was centrifuged for 10 min at 1000×g at 4° C. through a 0.5 ml cushion of bovine calf serum in an Eppendorf tube (Budel et al., 1989). The tubes were frozen in liquid nitrogen and the tips cut off for counting in a Packard gamma counter. Competition binding was determined relative to the reference preparation. […] Radiolabeled IL-3 binding to patient AML blasts is competed with unlabeled IL-3 protein (reference preparation). Due to the low number of receptors (less than 200) on the target cells, data for competition mostly varied by one order of magnitude.
[1]Deletion between amino acid numbers of mature human IL-3 is indicated. Substitutions of amino acids are indicated in single letter code. [2]Median specific biological activity is expressed relative to the reference IL-3 preparations. [3]Antagonistic potential is represented as relative receptor binding activity divided by relative biological activity. The range is presented between brackets. […] Muteins were diluted in medium and tested for biological activity. Receptor binding experiments were performed once. †Mutein protein concentration was too low for densitometric scanning and was estimated from gels and western blots. ¤Mutant proteins were expressed in Bacillus and lack a leader polypeptide sequence.

relative antagonistic potential (relative receptor binding activity / relative biological activity) | Binder
12 | B5
3 | B6
0.6 | B7
3 | B8

The binders below were run against T1, IL-3 receptor (assay: competition with radiolabeled IL-3 for binding to cells; NC: No competition was observed for the particular mutein preparation).
Protocol: as §1

binding result | Binder
no binding | B1
no binding | B2
no binding | B3
no binding | B4
no binding | B9
no binding | B10
no binding | B11
no binding | B12
